This assay concerns the target actin (filamentous actin from chicken pectoralis) (chicken) (UniProt P68139). The assay is described as follows: laser trap.

On to “M5HMM containing only bound calmodulin (from UniProt Q99104 1-1098; P0DP23 1-149) (complex)”, for which the displacement duration (t on, time attached to actin) stood at 120 ms.
On to “M5HMM(tag) with calmodulin (from UniProt Q99104 1-1098; P0DP23 1-149) (complex)”, for which the displacement duration (t on, time attached to actin) turned out to be 100 ms.
With “baculovirus-expressed (-)insert isoform of smooth muscle myosin HMM (from UniProt P10587 1-1979) (complex)”, the displacement duration, step 1 of double step events was 468 ms and the displacement duration, step 2 of double step events was 400 ms.
